For 39 molecules, normalised SPOT signal, Boehringer light units (BLU); mean over the file's lines of this peptide results are on record in article PMC314469, “Protein Interaction Networks by Proteome Peptide Scanning” (PLoS Biology, 2004).

T1: Myo5 SH3 (MYO5_YEAST), Q04439
T1 chain: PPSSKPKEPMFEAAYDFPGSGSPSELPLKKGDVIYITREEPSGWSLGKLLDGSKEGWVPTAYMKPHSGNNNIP

The test concerns the target T1, Myo5 SH3 (MYO5_YEAST), Q04439. The experiment in a line: SPOT array.
For FPKKMGPPQWPFST [YHR199C 84-97], the normalised SPOT signal, Boehringer light units (BLU); mean over the file's lines of this peptide is 279. As for FLALFSDPARPFLT [YHL005C 61-74], the figure is 452; as for FPFYLSFPFSPSFP [YLR198C 23-36], 760; as for GFVFFIAPHLPVDL [YER003C 399-412], 508. With FLTVYILPKNPFRV [YGR293C 121-134], the normalised SPOT signal, Boehringer light units (BLU); mean over the file's lines of this peptide came out at 1470. As for GEIMFPAPPLPIAN [YDL172C 53-66], the figure is 2770; as for FEESMNNPLPPLPP [YDL117W 176-189], 169; as for FFFFHLSPSIPFWF [YDL196W 57-70], 6490. With FFQLMQSPSLPLLM [YDR159W 429-442], the normalised SPOT signal, Boehringer light units (BLU); mean over the file's lines of this peptide was determined as 830. As for FASQLRKPRAPMRN [YER141W 445-458], the figure is 460; as for FLPVFNLPSNPALF [YKL083W 42-55], 154. To EPIAHLFPPGPKNP [YEL031W 876-889] belongs 356. GEFFHSSPNIPHYA [YLR244C 297-310] returned a normalised SPOT signal, Boehringer light units (BLU); mean over the file's lines of this peptide of 271. To FLSRYPVPDLPIYL [YDR422C 770-783] belongs 1340; to FEKRYYVPEDPSQD [YPR184W 1320-1333], 121. In turn, GESHYKPPSTPKIN [YFL034W 1020-1033] registered a normalised SPOT signal, Boehringer light units (BLU); mean over the file's lines of this peptide of 722. To FEMVFRHPEQPHMI [YBL088C 1519-1532] belongs 310; to FLYPYDDPNAPIDE [YCR079W 210-223], 55.4; to FLSYMSEPKYPSNE [YJL029C 360-373], 142. Regarding GAPPLPVPNGPAVG [YPL190C 573-586], the normalised SPOT signal, Boehringer light units (BLU); mean over the file's lines of this peptide stood at 222. As for EWPGLDPPYIPLDF [YLR308W 63-76], the figure is 62.7; as for FFTIWFIPLVPVFW [YBL029C-A 44-57], 397; as for GETQWRIPYLPLDP [YNL104C 387-400], 106.

As for GAGGLGSPALPYLA [YHR111W 74-87], the normalised SPOT signal, Boehringer light units (BLU); mean over the file's lines of this peptide was 111. Take FESFLRPPSTPDLP [YLR149C 637-650]: the normalised SPOT signal, Boehringer light units (BLU); mean over the file's lines of this peptide worked out at 70.2. As for GFDGYMQPIIPGKT [YDR390C 147-160], the figure is 158; as for FESTLPIPTYPREG [YEL070W 20-33], 122. As for GETRWRIPYLPLDP [YOR108W 386-399], the normalised SPOT signal, Boehringer light units (BLU); mean over the file's lines of this peptide was determined as 118. As for FFNRYPNPYSPHVL [YLR193C 22-35], the normalised SPOT signal, Boehringer light units (BLU); mean over the file's lines of this peptide amounted to 137.

As to FLRTMAQPTDPKDQ [YER171W 720-733], the normalised SPOT signal, Boehringer light units (BLU); mean over the file's lines of this peptide came to 257. As for FWKIHLSPPLPSFK [YGR018C 23-36], the figure is 966; as for FAYSLGLPGAPKIK [YJL033W 477-490], 75.8; as for FARTLKIPNEPSPG [YKR038C 231-244], 146.

The molecule FFPIMSLPVTPVKS [YER032W 46-59] showed a normalised SPOT signal, Boehringer light units (BLU); mean over the file's lines of this peptide of 122. With EPPSWKPPDLPIRL [YIL156W 498-511], the normalised SPOT signal, Boehringer light units (BLU); mean over the file's lines of this peptide came out at 87000.

For FENLLMEPNLPFFT [YJR031C 942-955], the normalised SPOT signal, Boehringer light units (BLU); mean over the file's lines of this peptide was found to be 202. Regarding GEYDLIMPIYPYRL [YIL173W 521-534], the normalised SPOT signal, Boehringer light units (BLU); mean over the file's lines of this peptide turned out to be 242. In the case of GARFLPAPHRPEKY [YGR154C 63-76], the normalised SPOT signal, Boehringer light units (BLU); mean over the file's lines of this peptide turned out to be 153. As for FEDHHITPSKPGGQ [YDR451C 287-300], the figure is 67.9.
